In patent US20200231673A1 (Hoffmann-La Roche, published 2020):
Blank lines part the entries; values can stand above or below the binder they belong to.

What was measured:
[1] = biological target: human CD3 (particularly the epsilon subunit of CD3) (human, UniProt P07766 23-207); assay: cell-based or functional assay
human Her3 = human Her3 (human, UniProt P21860 20-1342); assay: cell-based or functional assay

EC50 of activation of Jurkat-NFAT reporter cells via CD3 after 5 h (luminescence, KPL4 tumor cells) [1]: 34.4 pM
B1: Her2 TCB: anti-Her2/anti-CD3 '2+1 IgG CrossFab, inverted' molecule with charge modifications (bispecific antibody)
light: EVQLLESGGGLVQPGGSLRLSCAASGFTFSTYAMNWVRQAPGKGLEWVSRIRSKYNNYATYYADSVKGRFTISRDDSKNTLYLQMNSLRAEDTAVYYCVRHGNFGNSYVSWFAYWGQGTLVTVSSASVAAPSVFIFPPSDEQLKSGTASVVCLLNNFYPREAKVQWKVDNALQSGNSQESVTEQDSKDSTYSLSSTLTLSKADYEKHKVYACEVTHQGLSSPVTKSFNRGEC
chain 1: not shown
chain 2: not shown
chain 3: not shown

EC50 of activation of Jurkat-NFAT reporter cells via CD3 after 5 h (luminescence, KPL4 tumor cells) [1]: 22 pM
EC50 of tumor cell lysis (LDH release), KPL4 cells, 24 h (human Her3): 2.54 pM
EC50 of tumor cell lysis (LDH release), KPL4 cells, 48 h (human Her3): 0.53 pM
EC50 of tumor cell lysis determined by Caspase 3/7 activity (luminescence), KPL-4-Caspase-3/7 GloSensor cells, 6.5 h (human Her3): 0.7 pM
B2: Her3 TCB: anti-Her3/anti-CD3 '2+1 IgG CrossFab' molecule with charge modifications (bispecific antibody)
light: B1 light
chain 1: not shown
chain 2: QVQLVQSGAEVKKPGASVKVSCKASGYTFRSSYISWVRQAPGQGLEWMGWIYAGTGSPSYNQKLQGRVTMTTDTSTSTAYMELRSLRSDDTAVYYCARHRDYYSNSLTYWGQGTLVTVSSASTKGPSVFPLAPSSKSTSGGTAALGCLVEDYFPEPVTVSWNSGALTSGVHTFPAVLQSSGLYSLSSVVTVPSSSLGTQTYICNVNHKPSNTKVDEKVEPKSCDKTHTCPPCPAPEAAGGPSVFLFPPKPKDTLMISRTPEVTCVVVDVSHEDPEVKFNWYVDGVEVHNAKTKPREEQYNSTYRVVSVLTVLHQDWLNGKEYKCKVSNKALGAPIEKTISKAKGQPREPQVCTLPPSRDELTKNQVSLSCAVKGFYPSDIAVEWESNGQPENNYKTTPPVLDSDGSFFLVSKLTVDKSRWQQGNVFSCSVMHEALHNHYTQKSLSLSP
chain 3: not shown
